Usually Kd stands for a measure of binding affinity in units of concentration.

From publication PMC1179735 come the findings set out here.

The data set concerns the target T1, indolicidin (Bos taurus (bovine; synthetic peptide), UniProt P33046).
T1 chain: ILPWKWPWWPWRR
The data set is described as follows: SPR. Background: In SPR one partner is held on a chip, and binding of the other changes the refractive index at the surface.
On to CATAATATTC (ssDNA) [ss[AT]], for which the affinity, expressed as Kd, was 2.09 mM.

In turn, CGTGTGTGTC (ssDNA) [ss[GT]] returned a Kd of 0.115 mM.

The molecule CGCGGCGGCT (ssDNA) [ss[GC] (ss[CG] in Table 2)] returned a Kd of 1.53 mM.

CAGAGAGAGT (ssDNA) [ss[AG]]: binding was characterised by a dissociation constant (Kd) of 2.44 mM.
